Data published in patent US20220119536A1 (Boehringer Ingelheim, published 2022).
Where “and” joins values, the source holds several entries; their conditions need not be identical. Identical values can stand only once. Like-named read-outs stand apart in the source and are kept apart here.

Key:
Test in all cases: cell-based or functional assay
human VEGF-A [1] = target: T1, human VEGF-A (human, UniProt P15692-4 27-191)
human VEGF-A [2] = target: T1, human VEGF-A; remark: listed apart in the source
human VEGF-A [3] = target: T1, human VEGF-A; remark: listed apart in the source
human VEGF-A [4] = target: T1, human VEGF-A; remark: listed apart in the source
human VEGF-A [5] = target: T1, human VEGF-A; remark: listed apart in the source
human VEGF-A [6] = target: T1, human VEGF-A; remark: listed apart in the source
human TrkB receptor [7] = target: T2, human TrkB receptor (human, UniProt Q16620 32-822)
human TrkB receptor [8] = target: T2, human TrkB receptor; remark: listed apart in the source

T1 sequence (P15692 other isoform, or with tags, fused parts or gaps limits assumed): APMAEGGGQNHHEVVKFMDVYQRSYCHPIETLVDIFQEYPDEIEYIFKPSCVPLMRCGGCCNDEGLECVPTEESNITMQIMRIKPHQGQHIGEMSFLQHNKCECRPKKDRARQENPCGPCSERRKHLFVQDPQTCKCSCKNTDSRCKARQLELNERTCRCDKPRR
T2 sequence (Q16620 32-822): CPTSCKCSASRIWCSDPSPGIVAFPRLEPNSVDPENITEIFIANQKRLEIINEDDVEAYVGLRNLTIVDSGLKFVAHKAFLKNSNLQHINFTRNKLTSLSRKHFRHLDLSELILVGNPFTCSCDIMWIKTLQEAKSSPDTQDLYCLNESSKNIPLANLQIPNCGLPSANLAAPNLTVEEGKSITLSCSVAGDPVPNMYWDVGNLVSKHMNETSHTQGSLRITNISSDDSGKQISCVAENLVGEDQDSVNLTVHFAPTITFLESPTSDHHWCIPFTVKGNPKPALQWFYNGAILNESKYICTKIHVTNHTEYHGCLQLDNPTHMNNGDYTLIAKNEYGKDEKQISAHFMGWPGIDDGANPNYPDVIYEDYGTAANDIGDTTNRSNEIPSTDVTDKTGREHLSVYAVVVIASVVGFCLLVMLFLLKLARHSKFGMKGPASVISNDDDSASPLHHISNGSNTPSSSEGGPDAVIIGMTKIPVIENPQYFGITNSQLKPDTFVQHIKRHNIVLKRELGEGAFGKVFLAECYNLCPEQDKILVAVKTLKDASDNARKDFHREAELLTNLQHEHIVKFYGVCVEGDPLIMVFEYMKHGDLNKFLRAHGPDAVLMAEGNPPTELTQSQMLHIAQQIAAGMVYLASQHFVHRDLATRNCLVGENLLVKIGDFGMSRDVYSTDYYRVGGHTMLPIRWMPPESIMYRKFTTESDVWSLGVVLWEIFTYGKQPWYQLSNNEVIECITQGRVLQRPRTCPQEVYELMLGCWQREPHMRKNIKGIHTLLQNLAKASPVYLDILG

| Binder | Bottom plateau (ERK1/2 phosphorylation, counts) (human VEGF-A [2]) [counts] | Bottom plateau (Src phosphorylation, counts) (human VEGF-A [2]) [counts] | IC50 (ERK1/2 phosphorylation) (human VEGF-A [2]) [nM] | IC50 (Src phosphorylation) (human VEGF-A [2]) [nM] | Bottom plateau (ERK1/2 phosphorylation, counts) (human VEGF-A [4]) [counts] | Bottom plateau (Src phosphorylation, counts) (human VEGF-A [4]) [counts] | IC50 (ERK1/2 phosphorylation) (human VEGF-A [4]) [nM] | IC50 (Src phosphorylation) (human VEGF-A [4]) [nM] | Bottom plateau (ERK1/2 phosphorylation, counts) (human VEGF-A [5]) [counts] | Bottom plateau (Src phosphorylation, counts) (human VEGF-A [5]) [counts] | IC50 (ERK1/2 phosphorylation) (human VEGF-A [5]) [nM] | IC50 (Src phosphorylation) (human VEGF-A [5]) [nM] | Bottom plateau (ERK1/2 phosphorylation, counts) (human VEGF-A [6]) [counts] | Bottom plateau (Src phosphorylation, counts) (human VEGF-A [6]) [counts] | IC50 (ERK1/2 phosphorylation) (human VEGF-A [6]) [nM] | IC50 (Src phosphorylation) (human VEGF-A [6]) [nM] | concentration for full inhibition of VEGF-induced HRMEC proliferation (human VEGF-A [3]) [nM] | other results |
| --- | --- | --- | --- | --- | --- | --- | --- | --- | --- | --- | --- | --- | --- | --- | --- | --- | --- | --- |
| TPP-11736 (bispecific antibody, human IgG1, kappa, L234A L235A) light: DIQMTQSPSSLSASVGDRVTITCRTSENVYSNLAWYQQKPGKAPKLLIYAASNLQSGVPSRFSGSGSGTDYTFTISSLQPEDIATYYCQHFWGSPFTFGQGTKLEIKRTVAAPSVFIFPPSDEQLKSGTASVVCLLNNFYPREAKVQWKVDNALQSGNSQESVTEQDSKDSTYSLSSTLTLSKADYEKHKVYACEVTHQGLSSPVTKSFNRGEC heavy: not shown | 3690 | 6300 | 5.6 | 4 | 3690 | 6300 | 5.59 | 3.97 | 3690 | 6300 | 5.59 | 3.97 | 3690 | 6300 | 5.59 | 3.97 |  | IC50 (ERK1/2 phosphorylation) (human VEGF-A [1]): 9.1 nM; IC50 (p38 MAPK phosphorylation) (human VEGF-A [1]): 7.7 nM; IC50, inhibition of VEGF-induced ERK1/2 phosphorylation (human VEGF-A [3]): ~4 nM and ~10 nM; IC50, inhibition of VEGF-induced p38 MAPK phosphorylation (human VEGF-A [3]): ~7.4 nM |
| TPP-14936 (bispecific antibody, human IgG1, kappa, L234A L235A) light: DIQMTQSPSSLSASVGDRVTITCRTSENVYSNLAWYQQKPGKAPKLLIYAASNLQSGVPSRFSGSGSGTDYTFTISSLQPEDIATYYCQHFWGSPFTFGQGTKLEIKRTVAAPSVFIFPPSDEQLKSGTASVVCLLNNFYPREAKVQWKVDNALQSGNSQESVTEQDSKDSTYSLSSTLTLSKADYEKHKVYACEVTHQGLSSPVTKSFNRGEC heavy: not shown | -341 | 4650 | 3.5 | 3.4 |  |  |  |  |  |  |  |  | -340 | 4650 | 3.49 | 3.4 | 1 |  |
| TPP-14937 (bispecific antibody, human IgG1, kappa, L234A L235A) light: DIQMTQSPSSLSASVGDRVTITCRTSENVYSNLAWYQQKPGKAPKLLIYAASNLQSGVPSRFSGSGSGTDYTFTISSLQPEDIATYYCQHFWGSPFTFGQGTKLEIKRTVAAPSVFIFPPSDEQLKSGTASVVCLLNNFYPREAKVQWKVDNALQSGNSQESVTEQDSKDSTYSLSSTLTLSKADYEKHKVYACEVTHQGLSSPVTKSFNRGEC heavy: not shown | -927 | 4570 | 5.6 | 5.8 |  |  |  |  |  |  |  |  | -926 | 4570 | 5.58 | 5.83 | 4 |  |
| TPP-11738 (bispecific antibody, human IgG1, kappa, L234A L235A) light: DIQMTQSPSSLSASVGDRVTITCRTSENVYSNLAWYQQKPGKAPKLLIYAASNLQSGVPSRFSGSGSGTDYTFTISSLQPEDIATYYCQHFWGSPFTFGQGTKLEIKRTVAAPSVFIFPPSDEQLKSGTASVVCLLNNFYPREAKVQWKVDNALQSGNSQESVTEQDSKDSTYSLSSTLTLSKADYEKHKVYACEVTHQGLSSPVTKSFNRGEC heavy: not shown |  |  |  |  |  |  |  |  |  |  |  |  |  |  |  |  |  | IC50, inhibition of VEGF-induced ERK1/2 phosphorylation (human VEGF-A [3]): ~4 nM and ~10 nM |
| human BDNF (ligand, UniProt P23560 129-247, looked up) HSDPARRGELSVCDSISEWVTAADKKTAVDMSGGTVTVLEKVPVSKGQLKQYFYETKCNPMGYTKEGCRGIDKRHWNSQCRTTQSYVRALTMDSKKRIGWRFIRIDTSCVCTLTIKRGR |  |  |  |  |  |  |  |  |  |  |  |  |  |  |  |  |  | EC50 (pERK) (human TrkB receptor [7]): 0.282 nM; EC50 (pTrkB) (human TrkB receptor [7]): 1.28 nM; EC50 (pERK) (human TrkB receptor [8]): 0.507 nM; EC50 (pTrkB) (human TrkB receptor [8]): 1.22 nM |
| TPP-14938 (bispecific antibody, human IgG1, kappa, L234A L235A) light: DIQMTQSPSSLSASVGDRVTITCRASQVIRRSLAWYQQKPGKAPKLLIYAASNLASGVPSRFSGSGSGTDFTLTISSLQPEDFATYYCQQSNTSPLTFGQGTKVEIKRTVAAPSVFIFPPSDEQLKSGTASVVCLLNNFYPREAKVQWKVDNALQSGNSQESVTEQDSKDSTYSLSSTLTLSKADYEKHKVYACEVTHQGLSSPVTKSFNRGEC heavy: not shown |  |  |  |  | 1330 | 5480 | 2.71 | 1.8 | 1330 | 5480 | 2.71 | 1.8 |  |  |  |  | > 16 |  |
| TPP-14939 (bispecific antibody, human IgG1, kappa, L234A L235A) light: DIQMTQSPSSLSASVGDRVTITCRASQVIRRSLAWYQQKPGKAPKLLIYAASNLASGVPSRFSGSGSGTDFTLTISSLQPEDFATYYCQQSNTSPLTFGQGTKVEIKRTVAAPSVFIFPPSDEQLKSGTASVVCLLNNFYPREAKVQWKVDNALQSGNSQESVTEQDSKDSTYSLSSTLTLSKADYEKHKVYACEVTHQGLSSPVTKSFNRGEC heavy: not shown |  |  |  |  | 1140 | 5540 | 2.51 | 1.16 | 1140 | 5540 | 2.51 | 1.16 |  |  |  |  | > 16 |  |
| TPP-13788 (B20 IgG) (antibody, V domains shown) VH: EVQLVESGGGLVQPGGSLRLSCAASGFTINASWIHWVRQAPGKGLEWVGAIYPYSGYTNYADSVKGRFTISADTSKNTAYLQMNSLRAEDTAVYYCARWGHSTSPWAMDYWGQGTLVTVSS VL: DIQMTQSPSSLSASVGDRVTITCRASQVIRRSLAWYQQKPGKAPKLLIYAASNLASGVPSRFSGSGSGTDFTLTISSLQPEDFATYYCQQSNTSPLTFGQGTKVEIK |  |  |  |  |  |  |  |  |  |  |  |  |  |  |  |  |  | IC50 (ERK1/2 phosphorylation) (human VEGF-A [1]): 3 nM; IC50 (p38 MAPK phosphorylation) (human VEGF-A [1]): 2.4 nM; fold increase of VEGF-A scavenging potency vs. TPP-11736 (human VEGF-A [3]): ~3 fold |
